The results in this text go back to the supplement of paper PMC11316812.

± gives the standard deviation of the averaged measurements.

Data set [1] concerns MCF7. Description: percentage of EdU-negative (G0-arrested) nuclei per well, 72 h; higher = more G0 arrest. Conditions: reference: sequence is the full UniProt precursor, the tested protein was the secreted form or ectodomain.
The test system of data set [2] is hTERT-HMEC. Described as above. Conditions: reference: sequence is the full UniProt precursor, the tested protein was the secreted form or ectodomain.
The mark [3] stands for this setting: protein concentration 0.00685714 µM.
The mark [4] stands for this setting: protein concentration 0.0685714 µM.
Setting [5] is: protein concentration 0.0175 µM.
[6] abbreviates: protein concentration 0.03125 µM.
[7] abbreviates: protein concentration 0.3125 µM.
The mark [8] stands for this setting: protein concentration 0.0225 µM.
Setting [9] is: protein concentration 0.02175 µM.
[10] abbreviates: protein concentration 0.2175 µM.
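Further: secreted proteins added to cultured cells, EdU pulse at the end, nuclei found by Hoechst imaging, EdU status from nuclear versus surrounding ring intensity ratio, PBS as neutral control.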

For “MSAAWIPALGLGVCLLLLPGPAGSEGAAPIAITCFTRGLDIRKEKADVLCPGGCPLEEFSVYGNIVYASVSSICGAAVHRGVISNSGGPVRVYSLPGRENYSSVDANGIQSQMLSRWSASFTVTKGKSSTQEATGQAVSTAHPPTGKRLKKTPEKKTGNKDCKADIAFLIDGSFNIGQRRFNLQKNFVGKVALMLGIGTEGPHVGLVQASEHPKIEFYLKNFTSAKDVLFAIKEVGFRGGNSNTGKALKHTAQKFFTVDAGVRKGIPKVVVVFIDGWPSDDIEEAGIVAREFGVNVFIVSVAKPIPEELGMVQDVTFVDKAVCRNNGFFSYHMPNWFGTTKYVKPLVQKLCTHEQMMCSKTCYNSVNIAFLIDGSSSVGDSNFRLMLEFVSNIAKTFEISDIGAKIAAVQFTYDQRTEFSFTDYSTKENVLAVIRNIRYMSGGTATGDAISFTVRNVFGPIRESPNKNFLVIVTDGQSYDDVQGPAAAAHDAGITIFSVGVAWAPLDDLKDMASKPKESHAFFTREFTGLEPIVSDVIRGICRDFLESQQ”, the “percentage of EdU-negative” value in data set [1] (setting [3]) was found to be 23.1 ± 2.5%; in data set [1] (setting [4]), 25.4 ± 0.26%; in data set [2] (setting [3]) it was 4.89 ± 0.28%; in data set [2] (setting [4]), 7.63 ± 0.47%.
For the sequence “MSAFRLWPGLLIMLGSLCHRGSPCGLSTHVEIGHRALEFLQLHNGRVNYRELLLEHQDAYQAGIVFPDCFYPSICKGGKFHDVSESTHWTPFLNASVHYIRENYPLPWEKDTEKLVAFLFGITSHMAADVSWHSLGLEQGFLRTMGAIDFHGSYSEAHSAGDFGGDVLSQFEFNFNYLARRWYVPVKDLLGIYEKLYGRKVITENVIVDCSHIQFLEMYGEMLAVSKLYPTYSTKSPFLVEQFQEYFLGGLDDMAFWSTNIYHLTSFMLENGTSDCNLPENPLFIACGGQQNHTQGSKMQKNDFHRNLTTSLTESVDRNINYTERGVFFSVNSWTPDSMSFIYKALERNIRTMFIGGSQLSQKHVSSPLASYFLSFPYARLGWAMTSADLNQDGHGDLVVGAPGYSRPGHIHIGRVYLIYGNDLGLPPVDLDLDKEAHRILEGFQPSGRFGSALAVLDFNVDGVPDLAVGAPSVGSEQLTYKGAVYVYFGSKQGGMSSSPNITISCQDIYCNLGWTLLAADVNGDSEPDLVIGSPFAPGGGKQKGIVAAFYSGPSLSDKEKLNVEAANWTVRGEEDFSWFGYSLHGVTVDNRTLLLVGSPTWKNASRLGHLLHIRDEKKSLGRVYGYFPPNGQSWFTISGDKAMGKLGTSLSSGHVLMNGTLKQVLLVGAPTYDDVSKVAFLTVTLHQGGATRMYALTSDAQPLLLSTFSGDRRFSRFGGVLHLSDLDDDGLDEIIMAAPLRIADVTSGLIGGEDGRVYVYNGKETTLGDMTGKCKSWITPCPEEKAQYVLISPEASSRFGSSLITVRSKAKNQVVIAAGRSSLGARLSGALHVYSLGSD”, the “percentage of EdU-negative” value in data set [1] (setting [5]) turned out to be 25.88 ± 0.089%; in data set [1] (protein concentration 0.175 µM) it was 31.8 ± 1.3%; in data set [2] (setting [5]), 4.66 ± 0.8%; in data set [2] (protein concentration 0.175 µM) it was 7.38 ± 0.61%.
As for “MSALGAVIALLLWGQLFAVDSGNDVTDIADDGCPKPPEIAHGYVEHSVRYQCKNYYKLRTEGDGVYTLNDKKQWINKAVGDKLPECEADDGCPKPPEIAHGYVEHSVRYQCKNYYKLRTEGDGVYTLNNEKQWINKAVGDKLPECEAVCGKPKNPANPVQRILGGHLDAKGSFPWQAKMVSHHNLTTGATLINEQWLLTTAKNLFLNHSENATAKDIAPTLTLYVGKKQLVEIEKVVLHPNYSQVDIGLIKLKQKVSVNERVMPICLPSKDYAEVGRVGYVSGWGRNANFKFTDHLKYVMLPVADQDQCIRHYEGSTVPEKKTPKSPVGVQPILNEHTFCAGMSKYQEDTCYGDAGSAFAVHDLEEDTWYATGILSFDKSCAVAEYGVYVKVTSIQDWVQKTIAEN”, the “percentage of EdU-negative” value was 23.8 ± 3% in data set [1] (setting [6]), 23.1 ± 0.73% in data set [1] (setting [7]), 4.46 ± 0.32% in data set [2] (setting [6]) and 5.96 ± 1.1% in data set [2] (setting [7]).
For the sequence “MSALWLLLGLLALMDLSESSNWGCYGNIQSLDTPGASCGIGRRHGLNYCGVRASERLAEIDMPYLLKYQPMMQTIGQKYCMDPAVIAGVLSRKSPGDKILVNMGDRTSMVQDPGSQAPTSWISESQVSQTTEVLTTRIKEIQRRFPTWTPDQYLRGGLCAYSGGAGYVRSSQDLSCDFCNDVLARAKYLKRHGF [Q8N1E2]”, the “percentage of EdU-negative” value in data set [1] (setting [8]) was found to be 25.6 ± 2%; in data set [1] (protein concentration 0.225 µM) it was 25.2 ± 0.58%; in data set [2] (setting [8]), 4.76 ± 1.4%; in data set [2] (protein concentration 0.225 µM), 6.97 ± 0.29%.
For the sequence “MSAVLLLALLGFILPLPGVQALLCQFGTVQHVWKVSDLPRQWTPKNTSCDSGLGCQDTLMLIESGPQVSLVLSKGCTEAKDQEPRVTEHRMGPGLSLISYTFVCRQEDFCNNLVNSLPLWAPQPPADPGSLRCPVCLSMEGCLEGTTEEICPKGTTHCYDGLLRLRGGGIFSNLRVQGCMPQPGCNLLNGTQEIGPVGMTENCNRKDFLTCHRGTTIMTHGNLAQEPTDWTTSNTEMCEVGQVCQETLLLLDVGLTSTLVGTKGCSTVGAQNSQKTTIHSAPPGVLVASYTHFCSSDLCNSASSSSVLLNSLPPQAAPVPGDRQCPTCVQPLGTCSSGSPRMTCPRGATHCYDGYIHLSGGGLSTKMSIQGCVAQPSSFLLNHTRQIGIFSAREKRDVQPPASQHEGGGAEGLESLTWGVGLALAPALWWGVVCPSC [Q8N6Q3]”, the “percentage of EdU-negative” value in data set [1] (setting [9]) worked out at 26.1 ± 2.3%; in data set [1] (setting [10]), 26.7 ± 1%; in data set [2] (setting [9]), 4.87 ± 0.96%; in data set [2] (setting [10]), 6.31 ± 0.15%.
As for “MSCPVPACCALLLVLGLCRARPRNALLLLADDGGFESGAYNNSAIATPHLDALARRSLLFRNAFTSVSSCSPSRASLLTGLPQHQNGMYGLHQDVHHFNSFDKVRSLPLLLSQAGVRTGIIGKKHVGPETVYPFDFAYTEENGSVLQVGRNITRIKLLVRKFLQTQDDRPFFLYVAFHDPHRCGHSQPQYGTFCEKFGNGESGMGRIPDWTPQAYDPLDVLVPYFVPNTPAARADLAAQYTTVGRMDQGVGLVLQELRDAGVLNDTLVIFTSDNGIPFPSGRTNLYWPGTAEPLLVSSPEHPKRWGQVSEAYVSLLDLTPTILDWFSIPYPSYAIFGSKTIHLTGRSLLPALEAEPLWATVFGSQSHHEVTMSYPMRSVQHRHFRLVHNLNFKMPFPIDQDFYVSPTFQDLLNRTTAGQPTGWYKDLRHYYYRARWELYDRSRDPHETQNLATDPRFAQLLEMLRDQLAKWQWETHDPWVCAPDGVLEEKLSPQCQPLHNEL”, the “percentage of EdU-negative” value in data set [1] (setting [8]) was 28.4 ± 3.8%; in data set [1] (protein concentration 0.225 µM), 26.4 ± 0.34%; in data set [2] (setting [8]), 5.35 ± 1.4%; in data set [2] (protein concentration 0.225 µM) it was 7.84 ± 0.29%.
